The test system of data set [1] is BxPC-3. As to the kind of experiment: MTT Cell Proliferation Assay, BxPC-3. The format is cell-based, human. Particulars: 120 hours of exposure. From the text: (§1) This Example describes characterization of the cytotoxic activity of herein described anti-BKB2R monoclonal antibodies against a panel of cancer cell lines. BxPC-3 is a human adenocarcinoma cell line originally isolated from the pancreas (pancreatic cancer) (ATCC # CRL-1687; Tan et al., Cancer Invest. 4: 15-23, 1986. PubMed: 3754176). MV-4-11 is a human biphenotypic B myelomonocytic leukemia (mixed-lineage leukemia, MLL-AF4) cell line originally isolated from the peripheral blood (ATCC # CRL-959; Lange et al., Blood 70: 192-199, 1987. PubMed: 3496132). Hep G2 is a human hepatocellular carcinoma cell line isolated from the liver (liver cancer) (ATCC # HB-8065; Aden et al., Nature 282: 615-616, 1979. PubMed: 233137). RS4;11 is a human acute lymphoblastic leukemia (mixed-lineage leukemia, MLL-AF4) cell line isolated from the bone marrow (ATTC # CRL-1873) Stong et al., Blood 65: 21-31, 1985. PubMed: 3917311). HT-29 is a human colorectal adenocarcinoma (ATTC # HTB-38) cell line isolated from the colon (colon cancer). Fogh et al., J. Natl. Cancer Inst. 58: 209-214, 1977. PubMed: 833871). NUGC-4 is a human stomach carcinoma isolated from the stomach paragastiric lymph node (JCRB # JCRB0834; Akiyama et al., Jpn. J. Surg., 18: 438-446, 1988). […]
(§2) The anti-proliferative activity of test compounds against the indicated cell lines was evaluated in vitro using the ATCC's MTT Cell Proliferation Assay (Catalog No. 30-1010K). After the 120 hour incubation with drug (e.g., anti-BKB2R mAb or cisplatin), cell proliferation was measured by addition of MTT reagent to each well and incubation for an additional 4 hrs. […] Optical absorbance (570 nm) of the test wells was measured and then quantitated relative to control wells that received no drug. Results were expressed as percent inhibition versus compound concentration and graphed, as shown in FIGS. 19-25, for cell lines BxPC-3, MV-4;11, HepG2, RS-4;11, HT-29, NUGC-4, and PC-3, respectively.

Data set [2] deals with Hep G2. The experiment in a line: MTT Cell Proliferation Assay, Hep G2. The format is cell-based, human. To be noted: 120 hours of exposure.
Excerpt: as §1, §2

In data set [3] the test system is HT-29. The experiment in a line: MTT Cell Proliferation Assay, HT-29. The format is cell-based, human. Particulars: 120 hours of exposure.
Excerpt: as §1, §2

Data set [4] relates to NUGC-4. As to the kind of experiment: MTT Cell Proliferation Assay, NUGC-4. The format is cell-based, human. Particulars: 120 hours of exposure.
Excerpt: as §1, §2

In data set [5] the test system is PC-3. The experiment in a line: MTT Cell Proliferation Assay, PC-3. Particulars: 120 hours of exposure. The format is cell-based, human.
Excerpt: as §1, §2

Data set [6] concerns MV-4-11. As to the kind of experiment: MTT Cell Proliferation Assay, MV-4-11. The format is cell-based, human. To be noted: 120 hours of exposure.
Excerpt: as §1, §2

Data set [7] deals with RS-4;11. As to the kind of experiment: MTT Cell Proliferation Assay, RS-4;11. The format is cell-based, human. To be noted: 120 hours of exposure.
Excerpt: as §1, §2

Data set [8] addresses T1, BKB2 receptor (Homo sapiens, UniProt P30411).
T1 sequence (P30411 1-391): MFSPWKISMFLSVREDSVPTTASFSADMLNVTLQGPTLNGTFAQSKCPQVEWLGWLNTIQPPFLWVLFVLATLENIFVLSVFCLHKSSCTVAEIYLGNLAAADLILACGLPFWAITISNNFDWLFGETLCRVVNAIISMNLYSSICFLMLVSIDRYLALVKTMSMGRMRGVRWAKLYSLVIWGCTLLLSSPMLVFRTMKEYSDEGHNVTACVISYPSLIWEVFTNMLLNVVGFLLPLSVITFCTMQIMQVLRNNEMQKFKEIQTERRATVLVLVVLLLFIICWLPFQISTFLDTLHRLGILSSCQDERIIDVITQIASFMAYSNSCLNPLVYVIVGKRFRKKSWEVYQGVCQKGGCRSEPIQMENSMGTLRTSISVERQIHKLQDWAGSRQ
As to the kind of experiment: Intracellular calcium release in CHO-K1/B2/Gα15 cells (FLIPR Calcium 4). The format is cell-based. On the set-up: expressed in transfected cells. To be noted: bradykinin positive control (10 uM in the method); mean+/−SD, n=2. (In general: Calcium flux is commonly read through the fluorescence of an indicator in the cells.)
Method: A stable CHO cell line expressing the human BKB2 receptor (CHO-K1/B2/Gα15) was used for the screening. The antibody was diluted to five different concentrations, from 0.5 mg/ml, via three-fold dilution increments, and screened on duplicate cell samples.
Expression and functional activity of the human BKB2 receptor in the CHO-K1/B2/Gα15 cell line were validated by exposure to the positive control, bradykinin.
To perform the assay, CHO-K1/B2/Gα15 cells were seeded in wells of a 384-well black-wall, clear-bottom plate at a density of 20,000 cells per well in 20 μL of growth medium 20 hours prior to the day of experiment, and maintained at 37° C./5% CO2. 20 μL of dye-loading solution (FLIPR™ Calcium 4 assay kit, Molecular Devices, Sunnyvale, Calif.) was added into each well and the plate was placed into a 37° C. incubator for 60 minutes, followed by 15 minutes at room temperature. The total reading time was 120 sec. After a 20-second reading to establish the baseline, the antibody or agonist were added to selected wells and the fluorescence signal was captured for another 100 seconds (21 s to 120 s). Readings from wells containing cells stimulated with assay buffer (0.03% Na3N PBS) containing 1% DMSO were chosen as the background values for screening; readings from wells containing cells stimulated with the agonist bradykinin (at 10 uM) were chosen as the positive control.

The target in data set [9] is human bradykinin B2 receptor (BKB2R) (human) (UniProt P30411). As to the kind of experiment: cell-based or functional assay.
For data set [10], the target named is T1, BKB2 receptor. To be noted: BKB2 receptor agonist; cited from earlier work.
For data set [11] the following is noted: cited from earlier work.
For data set [12], the target named is T2, human BKB2R-derived epitope peptide (SEQ ID NO:73), PEG-biotin (human, also: PEG-biotin, site not given here).
T2 construct: also called immunogenic human BKB2R peptide fragment
T2 peptide: KEYSDEGHNVTAC
The experiment in a line: BLI (Octet), peptide-PEG-biotin on streptavidin sensor, antibody 833 nM.

In data set [13] the target is T2, human BKB2R-derived epitope peptide …. As to the kind of experiment: BLI (Octet), peptide-PEG-biotin on streptavidin sensor, antibody 1000 nM.
For data set [14] the target is unchanged. The experiment in a line: BLI (Octet), peptide-PEG-biotin on streptavidin sensor, antibody 1667 nM. A general note: Biolayer interferometry detects binding as a change in optical thickness at a sensor tip.
Data set [15] has the same target. The experiment in a line: BLI (Octet), peptide-PEG-biotin on streptavidin sensor, antibody 3333 nM.
The target is the same in data set [16]. As to the kind of experiment: BLI (Octet), peptide-PEG-biotin on streptavidin sensor, antibody 3333 nM; antibody 3333 nM row; the same constants are printed for all four ab 404 concentrations.
For data set [17] the target is unchanged. The experiment in a line: BLI (Octet), peptide-PEG-biotin on streptavidin sensor, antibody 250 nM. How it is done:
(§3) For the Octet study, antibodies were analyzed by kinetic titration of the antibodies. Antibodies were prepared in kinetic buffer (0.001 M phosphate buffered saline (NaCl 0.0138 M; KCl-0.00027 M); pH 7.4, at 25° C., 0.1 mg/ml BSA, 0.002% Tween and 0.005% Sodium Azide) followed by 1:2 serial dilutions.
(§4) Sensor Prep: Streptavidin biosensors (FortéBio Inc, Menlo Park, Calif.) were coated by incubation in a solution containing a peptide ([…]-PEG-biotin) (Biosyn, Lewisville, Tex.) at 50 μg/ml (300 seconds/1000 rpm shaking). 96 well half-volume plates were used for testing. 90 μl of sample was plated per well. Sensors were allowed to equilibrate to baseline in kinetic buffer (60 seconds/1000 rpm). The sensors were then placed into the various antibody dilutions to allow binding (association) to the probe for 500 seconds/1000 rpm, and measurements were taken. The sensors were then moved into kinetic buffer without antibody for dissociation (500 seconds/1000 rpm), and measurements were taken. Octet system software calculated kinetic constants for on rate/off rate/affinity.
(§5) For test humanized monoclonal antibodies, the highest concentration used was 500 nM followed by 1:2 dilutions. Each concentration was tested twice. The HC and LC represented the mouse original 5F12G1 VH and VL sequences.

Data set [18] shares this target. As to the kind of experiment: BLI (Octet), peptide-PEG-biotin on streptavidin sensor, antibody 500 nM. In outline:
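Streptavidin biosensors loaded with biotin-PEG peptide at 50 μg/ml; antibodies in PBS-based kinetic buffer pH 7.4 with BSA and Tween at 25° C, 1:2 serial dilutions from 500 nM for humanized antibodies. Association and dissociation 500 s each; on rate, off rate and affinity fitted by instrument software, each concentration in duplicate.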

For data set [19] the target is unchanged. As to the kind of experiment: BLI (Octet), peptide-PEG-biotin on streptavidin sensor, antibody 500 nM; antibody 500 nM (the 250 nM row r17 gives 4.41E-07 M). How it is done:
as §3, §4, §5

Where no end group is shown, it is not given here.

`N.N.[Cl][Pt][Cl]` [Cisplatin, cisplatin]: the “EC 50 Values (ng/ml) BxPC-3” value in [1] came to 204 ng/mL. For the same molecule, the EC50 amounted to 700 nM in [1] (read-out: EC 50 BxPC-3, value in brackets); 800 nM in data set [2] (read-out: EC 50 Hep G2, value in brackets); 2300 nM in data set [3] (read-out: EC 50 HT-29, value in brackets); 4100 nM in [4] (read-out: EC 50 NUGC-4, value in brackets); 2500 nM in data set [5] (read-out: EC 50 PC-3, value in brackets); 1200 nM in data set [6] (read-out: EC 50 MV-4-11, value in brackets). Also, in data set [7] (read-out: EC 50 RS-4;11, value in brackets), the EC50 came to 1100 nM. Further, the “EC 50 Values (ng/ml) Hep G2” value in data set [2] came out at 239 ng/mL. The “EC 50 Values (ng/ml) HT-29” value in data set [3] is 698 ng/mL. Also, the “EC 50 Values (ng/ml) NUGC-4” value in [4] is 1200 ng/mL. For the same molecule, in data set [5], the “EC 50 Values (ng/ml) PC-3” value came out at 753 ng/mL. In addition, in data set [6], the “EC 50 Values (ng/ml) MV-4-11” value is 347 ng/mL. Moreover, the “EC 50 Values (ng/ml) RS-4;11” value in data set [7] amounted to 344 ng/mL.
As for RPPGFSPFR [bradykinin], the percentage of activation in [8] is on record as 93.1+/−5.7%.
For “bradykinin (from UniProt P01042 381-389) (peptide)”, in data set [9], the ED50 (intracellular calcium release, FLIPR, CHO-K1/B2/Gα15 cells) was determined as 0.95 nm/l and the percentage of activation (intracellular calcium release, FLIPR, CHO-K1/B2/Gα15 cells) is 93.1%.
A word on the Kd: it is a measure of binding affinity in units of concentration. Turning to kallidin, the equilibrium dissociation constant (Kd) in [10] was roughly 0.89 nM. Further, in data set [11], the “short lived, in vivo” value is roughly 30 s.

B1: murine monoclonal anti-BKB2R antibody 5F12G1 (antibody, IgG2b, V domains shown)
VH: EVKLEESGGGLVQPGGSMKLSCVVSGFTFSDYWMSWVRHSPEMGLEWVAEIRLKSDNYATHYAESVKGRFTISRDDSKSRLYLQINSLRGEDTGIYYCTRDYYAMEYWGQGTSVTVSS
VL: DVVMTQTPLSLPVSLGDQASISCRSSQTIVHSNGKTYLEWYLQKPGQSPKLLIYKVSNRFSGVPDRFSGSGSGTEFTLKISRVETEDLGVYYCFQASHVPYTFGGGTKLEIK
notes: also called F512G1
What is called koff is a measure of how fast the partners let go of each other. By kon is commonly meant the rate constant with which the complex forms. Higher therefore signals fast association. Regarding B1, the Kd in [12], in data set [13], in data set [14] and in [16] was 462 nM in each case. Further, the koff in data set [12], in [13], in [14] and in data set [15] was 0.00109 s⁻¹ each time. The kon in [12], in data set [13], in [14] and in data set [15] was 2350 M⁻¹ s⁻¹ throughout.

B2: humanized anti-BKB2R antibody L1/H1 (antibody, human IgG2, kappa, V domains shown)
VH: EVQLVESGGGLVQPGGSLRLSCAASGFTFSDYWMSWVRQAPGKGLEWVAEIRLKSDNYATHYAESVKGRFTISRDNAKNSLYLQMNSLRAEDTAVYYCTRDYYAMEYWGQGTLVTVSS
VL: DIVMTQSPLSLPVTPGEPASISCRSSQTIVHSNGKTYLEWYLQKPGQSPQLLIYKVSNRFSGVPDRFSGSGSGTDFTLKISRVEAEDVGVYYCFQASHVPYTFGQGTKLEIKR
notes: also called H1/L1
In the case of B2, in data set [17], the dissociation constant (Kd) was 441 nM, the “Max Response” value is 0.286, the koff turned out to be 0.701 s⁻¹ and the association rate constant (kon) stood at 1.59e+06 M⁻¹ s⁻¹. In data set [18], the “Max Response” value worked out at 0.216, the dissociation rate constant (koff) is 0.942 s⁻¹ and the kon is 404000 M⁻¹ s⁻¹. The molecule also showed a Kd in data set [19] of 2330 nM.

The record behind these values is US20140017242A1, “ANTI-BRADYKININ B2 RECEPTOR (BKB2R) MONOCLONAL ANTIBODY” (Diamedica, Inc., priority 2010, published 2014).
